# ± gives the standard deviation of the averaged measurements.
# Assays:
# [1] = test system: MCF7; assay: percentage of EdU-negative (G0-arrested) nuclei per well, 72 h; higher = more G0 arrest; conditions: reference: sequence is the full UniProt precursor, the tested protein was the secreted form or ectodomain
# [2] = test system: hTERT-HMEC; assay: as above; conditions: reference: sequence is the full UniProt precursor, the tested protein was the secreted form or ectodomain
# [3] = protein concentration 0.03125 µM
# [4] = protein concentration 0.3125 µM
# [5] = protein concentration 0.0225 µM
# [6] = protein concentration 0.01275 µM
# [7] = protein concentration 0.1275 µM
# [8] = protein concentration 0.00685714 µM
# [9] = protein concentration 0.0685714 µM
# [10] = protein concentration 0.01575 µM
# [11] = protein concentration 0.1575 µM
# [12] = protein concentration 0.0075 µM
# 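Also: secreted proteins added to cultured cells, EdU pulse at the end, nuclei found by Hoechst imaging, EdU status from nuclear versus surrounding ring intensity ratio, PBS as neutral control.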
Sequence,"percentage of EdU-negative [1, 5] [%]",percentage of EdU-negative ([1]; protein concentration 0.225 µM) [%],"percentage of EdU-negative [2, 5] [%]",percentage of EdU-negative ([2]; protein concentration 0.225 µM) [%],other results
MAAPALSWRLPLLILLLPLATSWASAAVNGTSQFTCFYNSRANISCVWSQDGALQDTSCQVHAWPDRRRWNQTCELLPVSQASWACNLILGAPDSQKLTTVDIVTLRVLCREGVRWRVMAIQDFKPFENLRLMAPISLQVVHVETHRCNISWEISQASHYFERHLEFEARTLSPGHTWEEAPLLTLKQKQEWICLETLTPDTQYEFQVRVKPLQGEFTTWSPWSQPLAFRTKPAALGKDTIPWLGHLLVGLSGAFGFIILVYLLINCRNTGPWLKKVLKCNTPDPSKFFSQLSSEHGGDVQKWLSSPFPSSSFSPGGLAPEISPLEVLERDKVTQLLLQQDKVPEPASLSSNHSLTSCFTNQGYFFFHLPDALEIEACQVYFTYDPYSEEDPDEGVAGAPTGSSPQPLQPLSGEDDAYCTFPSRDDLLLFSPSLLGGPSPPSTAPGGSGAGEERMPPSLQERVPRDWDPQPLGPPTPGVPDLVDFQPPPELVLREAGEEVPDAGPREGVSFPWSRPPGQGEFRALNARLPLNTDAYLSLQELQGQDPTHLV,,,,,"percentage of EdU-negative [1, 3]: 25.8 ± 3.7%; percentage of EdU-negative [1, 4]: 26.1 ± 1.1%; percentage of EdU-negative [2, 3]: 4.64 ± 0.89%; percentage of EdU-negative [2, 4]: 4.91 ± 0.7%"
MAAPGSARRPLLLLLLLLLLGLMHCASAAMFMVKNGNGTACIMANFSAAFSVNYDTKSGPKNMTFDLPSDATVVLNRSSCGKENTSDPSLVIAFGRGHTLTLNFTRNATRYSVQLMSFVYNLSDTHLFPNASSKEIKTVESITDIRADIDKKYRCVSGTQVHMNNVTVTLHDATIQAYLSNSSFSRGETRCEQDRPSPTTAPPAPPSPSPSPVPKSPSVDKYNVSGTNGTCLLASMGLQLNLTYERKDNTTVTRLLNINPNKTSASGSCGAHLVTLELHSEGTTVLLFQFGMNASSSRFFLQGIQLNTILPDARDPAFKAANGSLRALQATVGNSYKCNAEEHVRVTKAFSVNIFKVWVQAFKVEGGQFGSVEECLLDENSMLIPIAVGGALAGLVLIVLIAYLVGRKRSHAGYQTI,27.7 ± 2.6,28.6 ± 2.1,4.801 ± 0.044,7.68 ± 1.6,
MAAPSGGWNGVGASLWAALLLGAVALRPAEAVSEPTTVAFDVRPGGVVHSFSHNVGPGDKYTCMFTYASQGGTNEQWQMSLGTSEDHQHFTCTIWRPQGKSYLYFTQFKAEVRGAEIEYAMAYSKAAFERESDVPLKTEEFEVTKTAVAHRPGAFKAELSKLVIVAKASRTEL [Q969H8],,,,,"percentage of EdU-negative [1, 3]: 25.7 ± 1.8%; percentage of EdU-negative [1, 4]: 24.42 ± 0.17%; percentage of EdU-negative [2, 3]: 4.64 ± 1%; percentage of EdU-negative [2, 4]: 5.57 ± 0.44%"
MAAPVPWACCAVLAAAAAVVYAQRHSPQEAPHVQYERLGSDVTLPCGTANWDAAVTWRVNGTDLAPDLLNGSQLVLHGLELGHSGLYACFHRDSWHLRHQVLLHVGLPPREPVLSCRSNTYPKGFYCSWHLPTPTYIPNTFNVTVLHGSKIMVCEKDPALKNRCHIRYMHLFSTIKYKVSISVSNALGHNATAITFDEFTIVKPDPPENVVARPVPSNPRRLEVTWQTPSTWPDPESFPLKFFLRYRPLILDQWQHVELSDGTAHTITDAYAGKEYIIQVAAKDNEIGTWSDWSVAAHATPWTEEPRHLTTEAQAAETTTSTTSSLAPPPTTKICDPGELGSGGGPSAPFLVSVPITLALAAAAATASSLLI,25 ± 1.9,27.1 ± 2.6,5 ± 0.54,6.52 ± 0.21,
MAAQGCAASRLLQLLLQLLLLLLLLAAGGARARWRGEGTSAHLRDIFLGRCAEYRALLSPEQRNKNCTAIWEAFKVALDKDPCSVLPSDYDLFINLSRHSIPRDKSLFWENSHLLVNSFADNTRRFMPLSDVLYGRVADFLSWCRQKNDSGLDYQSCPTSEDCENNPVDSFWKRASIQYSKDSSGVIHVMLNGSEPTGAYPIKGFFADYEIPNLQKEKITRIEIWVMHEIGGPNVESCGEGSMKVLEKRLKDMGFQYSCINDYRPVKLLQCVDHSTHPDCALKSAAAATQRKAPSLYTEQRAGLIIPLFLVLASRTQL,25.74 ± 0.03,23.5 ± 0.97,5.33 ± 0.28,5.57 ± 1,
MAARALCMLGLVLALLSSSSAEEYVGLSANQCAVPAKDRVDCGYPHVTPKECNNRGCCFDSRIPGVPWCFKPLQEAECTF,26.62 ± 0.26,24 ± 0.99,4.3 ± 0.16,4.29 ± 0.22,
MAARRSQRRRGRRGEPGTALLVPLALGLGLALACLGLLLAVVSLGSRASLSAQEPAQEELVAEEDQDPSELNPQTEESQDPAPFLNRLVRPRRSAPKGRKTRARRAIAAHYEVHPRPGQDGAQAGVDGTVSGWEEARINSSSPLRYNRQIGEFIVTRAGLYYLYCQVHFDEGKAVYLKLDLLVDGVLALRCLEEFSATAASSLGPQLRLCQVSGLLALRPGSSLRIRTLPWAHLKAAPFLTYFGLFQVH,24.6 ± 1.4,24.3 ± 3.4,12.2 ± 2.6,13.4 ± 1.1,
MAASRWARKAVVLLCASDLLLLLLLLPPPGSCAAEGSPGTPDESTPPPRKKKKDIRDYNDADMARLLEQWEKDDDIEEGDLPEHKRPSAPVDFSKIDPSKPESILKMTKKGKTLMMFVTVSGSPTEKETEEITSLWQGSLFNANYDVQRFIVGSDRAIFMLRDGSYAWEIKDFLVGQDRCADVTLEGQVYPGKGGGSKEKNKTKQDKGKKKKEGDLKSRSSKEENRAGNKREDL,27.3 ± 3.2,27.3 ± 1,5.03 ± 0.66,11 ± 0.91,
MAATSLMSALAARLLQPAHSCSLRLRPFHLAAVRNEAVVISGRKLAQQIKQEVRQEVEEWVASGNKRPHLSVILVGENPASHSYVLNKTRAAAVVGINSETIMKPASISEEELLNLINKLNNDDNVDGLLVQLPLPEHIDERRICNAVSPDKDVDGFHVINVGRMCLDQYSMLPATPWGVWEIIKRTGIPTLGKNVVVAGRSKNVGMPIAMLLHTDGAHERPGGDATVTISHRYTPKEQLKKHTILADIVISAAGIPNLITADMIKEGAAVIDVGINRVHDPVTAKPKLVGDVDFEGVRQKAGYITPVPGGVGPMTVAMLMKNTIIAAKKVLRLEEREVLKSKELGVATN,,,,,"percentage of EdU-negative [1, 6]: 24 ± 0.89%; percentage of EdU-negative [1, 7]: 29 ± 2%; percentage of EdU-negative [2, 6]: 4.46 ± 0.17%; percentage of EdU-negative [2, 7]: 5.45 ± 0.4%"
MAAVRGAPLLSCLLALLALCPGGRPQTVLTDDEIEEFLEGFLSELEPEPREDDVEAPPPPEPTPRVRKAQAGGKPGKRPGTAAEVPPEKTKDKGKKGKKDKGPKVPKESLEGSPRPPKKGKEKPPKATKKPKEKPPKATKKPKEKPPKATKKPKEKPPKATKKPPSGKRPPILAPSETLEWPLPPPPSPGPEELPQEGGAPLSNNWQNPGEETHVEAREHQPEPEEETEQPTLDYNDQIEREDYEDFEYIRRQKQPRPPPSRRRRPERVWPEPPEEKAPAPAPEERIEPPVKPLLPPLPPDYGDGYVIPNYDDMDYYFGPPPPQKPDAERQTDEEKEELKKPKKEDSSPKEETDKWAVEKGKDHKEPRKGEELEEEWTPTEKVKCPPIGMESHRIEDNQIRASSMLRHGLGAQRGRLNMQTGATEDDYYDGAWCAEDDARTQWIEVDTRRTTRFTGVITQGRDSSIHDDFVTTFFVGFSNDSQTWVMYTNGYEEMTFHGNVDKDTPVLSELPEPVVARFIRIYPLTWNGSLCMRLEVLGCSVAPVYSYYAQNEVVATDDLDFRHHSYKDMRQLMKVVNEECPTITRTYSLGKSSRGLKIYAMEISDNPGEHELGEPEFRYTAGIHGNEVLGRELLLLLMQYLCREYRDGNPRVRSLVQDTRIHLVPSLNPDGYEVAAQMGSEFGNWALGLWTEEGFDIFEDFPDLNSVLWGAEERKWVPYRVPNNNLPIPERYLSPDATVSTEVRAIIAWMEKNPFVLGANLNGGERLVSYPYDMARTPTQEQLLAAAMAAARGEDEDEVSEAQETPDHAIFRWLAISFASAHLTLTEPYRGGCQAQDYTGGMGIVNGAKWNPRTGTINDFSYLHTNCLELSFYLGCDKFPHESELPREWENNKEALLTFMEQVHRGIKGVVTDEQGIPIANATISVSGINHGVKTASGGDYWRILNPGEYRVTAHAEGYTPSAKTCNVDYDIGATQCNFILARSNWKRIREIMAMNGNRPIPHIDPSRPMTPQQRRLQQRRLQHRLRLRAQMRLRRLNATTTLGPHTVPPTLPPAPATTLSTTIEPWGLIPPTTAGWEESETETYTEVVTEFGTEVEPEFGTKVEPEFETQLEPEFETQLEPEFEEEEEEEKEEEIATGQAFPFTTVETYTVNFGDF [Q8IUX7],,,,,"percentage of EdU-negative [1, 8]: 24.8 ± 1.1%; percentage of EdU-negative [1, 9]: 28.5 ± 0.34%; percentage of EdU-negative [2, 8]: 4.79 ± 0.43%; percentage of EdU-negative [2, 9]: 11.5 ± 0.62%"
MAAVVAATRWWQLLLVLSAAGMGASGAPQPPNILLLLMDDMGWGDLGVYGEPSRETPNLDRMAAEGLLFPNFYSANPLCSPSRAALLTGRLPIRNGFYTTNAHARNAYTPQEIVGGIPDSEQLLPELLKKAGYVSKIVGKWHLGHRPQFHPLKHGFDEWFGSPNCHFGPYDNKARPNIPVYRDWEMVGRYYEEFPINLKTGEANLTQIYLQEALDFIKRQARHHPFFLYWAVDATHAPVYASKPFLGTSQRGRYGDAVREIDDSIGKILELLQDLHVADNTFVFFTSDNGAALISAPEQGGSNGPFLCGKQTTFEGGMREPALAWWPGHVTAGQVSHQLGSIMDLFTTSLALAGLTPPSDRAIDGLNLLPTLLQGRLMDRPIFYYRGDTLMAATLGQHKAHFWTWTNSWENFRQGIDFCPGQNVSGVTTHNLEDHTKLPLIFHLGRDPGERFPLSFASAEYQEALSRITSVVQQHQEALVPAQPQLNVCNWAVMNWAPPGCEKLGKCLTPPESIPKKCLWSH,,,,,"percentage of EdU-negative [1, 10]: 27.9 ± 1.1%; percentage of EdU-negative [1, 11]: 26.9 ± 0.35%; percentage of EdU-negative [2, 10]: 5.59 ± 0.71%; percentage of EdU-negative [2, 11]: 24.2 ± 1.3%"
MAAWSPAAAAPLLRGIRGLPLHHRMFATQTEGELRVTQILKEKFPRATAIKVTDISGGCGAMYEIKIESEEFKEKRTVQQHQMVNQALKEEIKEMHGLRIFTSVPKR [Q53S33],26.66 ± 0.12,26.7 ± 1.7,4.56 ± 0.98,5.94 ± 0.72,
MACWWPLLLELWTVMPTWAGDELLNICMNAKHHKRVPSPEDKLYEECIPWKDNACCTLTTSWEAHLDVSPLYNFSLFHCGLLMPGCRKHFIQAICFYECSPNLGPWIQPVGSLGWEVAPSGQGERVVNVPLCQEDCEEWWEDCRMSYTCKSNWRGGWDWSQGKNRCPKGAQCLPFSHYFPTPADLCEKTWSNSFKASPERRNSGRCLQKWFEPAQGNPNVAVARLFASSAPSWELSYTIMVCSLFLPFLS [A6ND01],,,,,"percentage of EdU-negative [1, 12]: 24.06 ± 0.21%; percentage of EdU-negative ([1]; protein concentration 0.075 µM): 25.05 ± 0.12%; percentage of EdU-negative [2, 12]: 5.08 ± 0.06%; percentage of EdU-negative ([2]; protein concentration 0.075 µM): 7.68 ± 0.15%"
